These results are taken from publication doi:10.1101/2023.03.21.533612.

In general, stoichiometry N refers to the number of molecules, sites or subunits per partner or assembly.

This experiment addresses NStr-M35_S, M35 short version (aa 2-452) with N-terminal Twin-Strep tag and TEV cleavage sequence (murine cytomegalovirus (MCMV)). Briefly: SEC-MALS.

“NStr-M35_S, M35 short version (aa 2-452) with N-terminal Twin-Strep tag and TEV cleavage sequence (domain or fragment)” returned a stoichiometry N of 2.
